Laboratory results as given in US9938510B2, “Photobacterium sp. alpha-2-6-sialyltransferase variants” (The Regents of the University of California, priority 2014, dated 2018).

Columns and labels:
[1] = Expression and Ni2+-NTA purification of soluble recombinant protein; SDS-PAGE of lysates; design: species or system Escherichia coli; conditions: for expression level, purified by Ni2+-NTA column: per liter of Escherichia coli culture, repeated expression in duplicates or triplicates
Protocol: The plasmids containing mutant genes were transformed into Escherichia coli BL21 (DE3). The Escherichia coli cells were cultured in LB-rich media (10 g L^−1 tryptone, 5 g L^−1 yeast extract, and 10 g L^−1 NaCl) supplemented with ampicillin (100 μg mL^−1). Overexpression of the mutants was achieved by adding 0.3 mM of isopropyl-1-thio-β-D-galactopyranoside (IPTG) to the Escherichia coli culture when its OD600 nm reached 0.8. The induced culture was incubated at 20° C. for 20 h with vigorous shaking at 250 rpm in a C25KC incubator shaker (New Brunswick Scientific, Edison, N.J.). His6-tagged mutant proteins were purified from the cell lysate. To obtain cell lysate, the cell pellet harvested by centrifugation at 4000 rpm for 2 h was resuspended in 20 mL (for cells obtained from one liter culture) of lysis buffer (pH 8.0, 100 mM Tris-HCl containing 0.1% Triton X-100). Lysozyme (50 μg mL^−1) and DNaseI (3 μg mL^−1) were added to the resuspended cells followed by shaking at 37° C. for 60 min. The lysate was obtained as the supernatant after centrifugation at 11,000 rpm for 20 min. Purification of His6-tagged proteins from the lysate was achieved using 10 mL column packed with Ni^2+-NTA agarose. The column was pre-equilibrated with 8 column volumes of binding buffer (5 mM imidazole, 0.5 M NaCl, 50 mM Tris-HCl pH 7.5). After loading the sample, the column was washed with 8 column volumes of the binding and 8 column volumes of washing buffer (20 mM imidazole, 0.5 M NaCl, 50 mM Tris-HCl pH 7.5). Protein was eluted using 8 column volumes of the elute buffer (200 mM imidazole, 0.5 M NaCl, 50 mM Tris-HCl pH 7.5). The fractions containing the purified enzyme were collected and stored at 4° C. Protein concentrations were quantified by bicinchoninic acid (BCA) protein assay kit according to manufacturer's instruction using bovine serum albumin (BSA) as the protein standard. The wild-type enzyme and A366G mutant were expressed, purified, and quantified in duplicates or triplets for at least three times. […]

[2] = Sialyltransferase activity assay, GalNAcαSer as acceptor (HPLC); assay type: biochemical; conditions: 1 equivalent CMP-Neu5Ac was used; no NmCSS
Protocol: When LacβMU was used as an acceptor, the assay was performed in duplicate in 10 μL of Tris-HCl buffer (100 mM, pH 8.0) containing CMP-Neu5Ac (1 mM), LacβMU (1 mM), MgCl2 (20 mM), wild-type Psp2,6ST(15-501)-His6 or its mutant (0.3 μM). When an α-GalNAc-terminated acceptor was used, the assay was performed in duplicate in 10 μL of Tris-HCl buffer (100 mM, pH 8.0 for GalNAcαSer/Thr) or NaOAc-HOAc (100 mM, […]), MgCl2 (20 mM), wild-type Psp2,6ST(15-501)-His6 or its mutant (3.0 μM). Reactions were allowed to proceed at 20° C. for 20 min and stopped by adding 10 μL of cold ethanol. The analysis of sialylated product conversion was performed using the HPLC system as described above for sialyltransferase activity assay. The 4-methylumbelliferone (MU)-labeled fluorescent acceptor and the product formed were detected with excitation at 325 nm and emission at 372 nm. The 2-aminobenzoic acid (2AA)-labeled fluorescent acceptors and the products formed were detected with excitation at 315 nm and emission at 400 nm. The 9-fluorenylmethylcarbamate (Fmoc)-labeled fluorescent acceptors and the products formed were detected with excitation at 262 nm and emission at 313 nm.

[3] = One-pot two-enzyme (OP2E) sialylation with NmCSS, GalNAcαThr as acceptor; assay type: biochemical; conditions: 2.5 equivalents of Neu5Ac and 5.0 equivalents of CTP
Text: (§1) White bars: GalNAcαSer was used as an acceptor with 1 equivalent of Neu5Ac and 1.5 equivalents of CTP. Grey bars: GalNAcαSer was used as an acceptor with 2.5 equivalents of Neu5Ac and 5.0 equivalents of CTP. Black bars: GalNAcαThr was used as an acceptor with 2.5 equivalents of Neu5Ac and 5.0 equivalents of CTP.
In this system, CTP and Neu5Ac were used by NmCSS for the formation of CMP-Neu5Ac in situ (see also, Yu and Chen, et al. Bioorg. Med. Chem. 2004, 12, 6427-6435). CMP-Neu5Ac was used as the donor substrate for Psp26ST(15-501)-His6 or its mutants. […] For example, using 1 equivalent of Neu5Ac and 1.5 equivalents of CTP in the one-pot two-enzyme (OP2E) reaction (white bars in FIG. 6) improved the GalNAcαSer α2-6-sialylation reaction yields from less than 6% (1 equivalent CMP-Neu5Ac was used) (FIG. 5B) to 32-51% for W365A, W365G, W365S mutants. Similarly, the OP2E reaction improved the GalNAcαSer α2-6-sialylation reaction yields from 40% and 37% to 75% and 67% for A366G mutant and the wild-type enzyme, respectively. Increasing the concentrations of Neu5Ac and CTP to 2.5 and 5.0 equivalents further improved the reaction yields to more than 67% for Psp26ST(15-501)-His6 and its mutants ([…]). […] Therefore, in situ generation of CMP-Neu5Ac, the sugar nucleotide donor for sialyltransferases, was proven an efficient method to enhance the yields for sialylation reactions catalyzed not only by the wild-type enzymes but also sialyltransferase mutants.

[4] = One-pot two-enzyme (OP2E) sialylation with NmCSS, GalNAcαSer as acceptor; assay type: biochemical; conditions: 1 equivalent of Neu5Ac and 1.5 equivalents of CTP
Text: as §1
In this system, CTP and Neu5Ac were used by NmCSS for the formation of CMP-Neu5Ac in situ (see also, Yu and Chen, et al. Bioorg. Med. Chem. 2004, 12, 6427-6435). CMP-Neu5Ac was used as the donor substrate for Psp26ST(15-501)-His6 or its mutants. […] For example, using 1 equivalent of Neu5Ac and 1.5 equivalents of CTP in the one-pot two-enzyme (OP2E) reaction (white bars in FIG. 6) improved the GalNAcαSer α2-6-sialylation reaction yields from less than 6% (1 equivalent CMP-Neu5Ac was used) (FIG. 5B) to 32-51% for W365A, W365G, W365S mutants. Similarly, the OP2E reaction improved the GalNAcαSer α2-6-sialylation reaction yields from 40% and 37% to 75% and 67% for A366G mutant and the wild-type enzyme, respectively. Increasing the concentrations of Neu5Ac and CTP to 2.5 and 5.0 equivalents further improved the reaction yields to more than 67% for Psp26ST(15-501)-His6 and its mutants (black bars in FIG. 6). […]

Molecule | expression level, purified by Ni2+-NTA column [1] | GalNAcαSer α2-6-sialylation reaction yield, sialyltransferase alone (FIG. 5B) [2] [%] | yield of Neu5Acα2-6GalNAcαThr from GalNAcαThr, OP2E [3] [%] | GalNAcαSer α2-6-sialylation reaction yield, OP2E [4] [%] | expression level ([1]; general description) [mg/L]
Psp26ST(15-501)-His6: recombinant Photobacterium sp. JH-ISH-224 α2-6-sialyltransferase, residues 15-501, C-terminal His6, wild-type; SEQ ID NO: 23 (protein, C-terminal His6; Synthetic Psp26ST(15-501) WILD TYPE) CNNSEENTQSIIKNDINKTIIDEEYVNLEPINQSNISFTKHSWVQTCGTQQLLTEQNKESISLSVVAPRLDDDEKYCFDFNGVSNKGEKYITKVTLNVVAPSLEVYVDHASLPTLQQLMDIIKSEEENPTAQRYIAWGRIVPTDEQMKELNITSFALINNHTPADLVQEIVKQAQTKHRLNVKLSSNTAHSFDNLVPILKELNSFNNVTVTNIDLYDDGSAEYVNLYNWRDTLNKTDNLKIGKDYLEDVINGINEDTSNTGTSSVYNWQKLYPANYHFLRKDYLTLEPSLHELRDYIGDSLKQMQWDGFKKFNSKQQELFLSIVNFDKQKLQNEYNSSNLPNFVFTGTTVWAGNHEREYYAKQQINVINNAINESSPHYLGNSYDLFFKGHPGGGIINTLIMQNYPSMVDIPSKISFEVLMMTDMLPDAVAGIASSLYFTIPAEKIKFIVFTSTETITDRETALRSPLVQVMIKLGIVKEENVLFWA | 18-40 mg per liter | 37 | 88 | 67 | –
A366G: Photobacterium sp. JH-ISH-224 α2-6-sialyltransferase residues 15-501, A366G point mutation, C-terminal His6; SEQ ID NO: 2 (protein, C-terminal His6; Synthetic Psp26ST(15-501) A366G) CNNSEENTQSIIKNDINKTIIDEEYVNLEPINQSNISFTKHSWVQTCGTQQLLTEQNKESISLSVVAPRLDDDEKYCFDFNGVSNKGEKYITKVTLNVVAPSLEVYVDHASLPTLQQLMDIIKSEEENPTAQRYIAWGRIVPTDEQMKELNITSFALINNHTPADLVQEIVKQAQTKHRLNVKLSSNTAHSFDNLVPILKELNSFNNVTVTNIDLYDDGSAEYVNLYNWRDTLNKTDNLKIGKDYLEDVINGINEDTSNTGTSSVYNWQKLYPANYHFLRKDYLTLEPSLHELRDYIGDSLKQMQWDGFKKFNSKQQELFLSIVNFDKQKLQNEYNSSNLPNFVFTGTTVWGGNHEREYYAKQQINVINNAINESSPHYLGNSYDLFFKGHPGGGIINTLIMQNYPSMVDIPSKISFEVLMMTDMLPDAVAGIASSLYFTIPAEKIKFIVFTSTETITDRETALRSPLVQVMIKLGIVKEENVLFWA | 72-110 mg per liter | 40 | 93 | 75 | 72 to 110
